Data reported in the supplement of paper PMC9170038.

What was measured:
MS2 coat protein [1] = assay: apparent KD of MS2 coat protein, switch OFF state (with FMN for OFF switches, without FMN for ON switches); designed switch direction (-1 OFF switch, 1 ON switch): 1; higher = weaker reporter binding; conditions: FMN input: 0 or 200 uM; Eterna round: R93 (includes R88 designs)
Summary of the method: (§1)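 SNAP-549-labelled MS2 coat protein was titrated onto designed RNA switches that had been transcribed on-chip from Illumina sequencing clusters. Amounts doubled from 0.7 or 1.5 nM to 3 µM in 100 mM Tris-HCl pH 7.5, 80 mM KCl, 4 mM MgCl2, with constant ligand or without. Apparent KD is the median per design of normalised cluster binding-curve fits.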

MS2 coat protein [2] = assay: apparent KD of MS2 coat protein, switch ON state; designed switch direction (-1 OFF switch, 1 ON switch): 1; higher = weaker reporter binding; conditions: FMN input: 0 or 200 uM; Eterna round: R93 (includes R88 designs)
Summary of the method: as §1

Sequence	apparent KD of MS2 coat protein (MS2 coat protein [1]) [nM]	apparent KD of MS2 coat protein (MS2 coat protein [2]) [nM]
AAAAAAUAAAAAAAGGAUAUAAAUCCUAGAACAUGAGGAUCACCCAUGUACUAGGAAAAAAUAAAAAAGAAGGAAAAAUAAAAAA [SS2: MS2 19]	17.3	18.1
AAAAAAUAAAAAAAGGAUAUAAUGCUACAGACAUGAGGAUCACCCAUGUAGGUAGCAUUAAUAAAAAAGAAGGAAAAAUAAAAAA [SS2: MS2 32]	15.3	9.09
AAAACACAUGAGGAUCACCCAUGUAGAAAUACGGGAGGAUAUGCGAAAACGAAAGACAAAGUAGAAGGCCUAAAAG [saturn 8]	69.8	35.9
AAAAGACAUGAGGAUCACCCAUGUAAAAACAUAGGAGGAUAUGUCUGGAAACCAGACUGGACAGAAGGCCUUUGUC [SS1 - 63]	29.4	24.8
AAAAGACAUGAGGAUCACCCAUGUAAAAACGUAGGAGGAUAUGUCGUGAAAAAAGACUUGACAGAAGGCCUGUGUC [SS1 - 35]	39	25.9
AAAAGACAUGAGGAUCACCCAUGUCAAGACGUAGGAGGAUAUGUCUUGAAAAAAGACUUGACAGAAGGCCUGUGUC [SS1 - 55]	18.1	14.9
AAAAGACAUGAGGAUCACCCAUGUCCUCGGACAUGAGGAUAUGUACAGACUUCGGUCUGUACAGAAGGCAUGAAAA [SS1 - 1064]	233	52
AAAAGACAUGAGGAUCACCCAUGUGAAAACGUAGGAGGAUAUGUCGUGAAAAAAGACUUGACAGAAGGCCUGUGUC [SS1 - 34]	63.5	28.1
AAAAUAAAAAGGUAGGAUAUGGGUAAGUCUACAUGAGGAUCACCCAUGUAAUAAAAAGAAAAAAACCAGAAGGACCAAAAUAAAA [72%, More Wateronthemoon, 11]	50.1	20.2
AAAAUAAAAUAAAAGGAUAUAAAAUAAAAAACAUGAGGAUCACCCAUGUAAAAACAUGGGUGAAAAAAGAAGGAAAAAUAAAAAA [SS2: 70 No MS2]	1.74	36.7
AAAAUAAAAUAAAAGGAUAUAAAGAUAUAUACAUGAGGAUCACCCAUGUAUAUAUCAAUAAAAUAAAAGAAGGAAUAAAAAUAAA [SS2 510: MS2 10]	18	14.8
AAAAUACAUGAGGAUCACCCAUGUGAAAAUAUGGAAGGAUAUCAUGGAAAAAAAAAAACAUGAGAAGGUCCAAAAA [SS! 1 MT 9]	123	22
AAAAUACAUGAGGAUCACCCAUGUGAAAAUAUGGGAGGAUAUACAAACACGAAAGUGAAAGUAGAAGGCCUAAAAA [SS! MT 15]	231	51.6
AAAAUACAUGAGGAUCACCCAUGUGAAAAUAUGGGAGGAUAUACCGAAAAAAAAAAAACGGUAGAAGGCCCUAAAA [SS! 1 MT 6]	41.6	17.9
AAAAUACAUGAGGAUCACCCAUGUGAGUCGAACGCAGGAUAUGCCCGUUGAAAAGGGCGGGCAGAAGGGUGCCGAA [SameState1-IV]	61.7	34.4
AAAAUAUAAAGAGAGGAUAUCCAAAGAACCACAUGAGGAUCACCCAUGUAAAGAAAGAAUAAGUGGGAGAAGGCUCAAAUAAUAA [Designing denovo 24]	99.8	27.5
AAAAUAUAAAGGAAGGAUAUCCAAAGGACUACAUGAGGAUCACCCAUGUAAAGAAAGAAUAAAUGGGAGAAGGUCCAAAUAAUAA [Designing denovo 32]	180	44

Sequence	apparent KD of MS2 coat protein (MS2 coat protein [1]) [nM]	apparent KD of MS2 coat protein (MS2 coat protein [2]) [nM]
AAACCACAUGAGGAUCACCCAUGUAAAAAUAACGCAGGAUAUGGAAACACGAAAGUGAAACCAGAAGGGUGAAAAG [77%, Mat - Mod of Eli, 15]	33	24.5
AAACCACAUGAGGAUCACCCAUGUAAGAUAUACAUAGGAUAUGCGAAAAGAAACAAAGAAGCAGAAGGGUGGAAAA [75%, Ex sub1, 15]	54.9	100
AAACCACAUGAGGAUCACCCAUGUAGAAAUAUGGGAGGAUAUACAAACACGAAAGUGAAAGUAGAAGGCCUAAAAG [77%, Mat - Mod of Eli, 7]	118	17.7
AAAGACACGGUGCAGGAUAUAGUAAUAGUCACAUGAGGAUCACCCAUGUUCUUUUAUAAGAACGAUUAGAAGGGCGGUGAAAAAA [SameState2 Malc#10]	92.6	182
AAAGACACGGUGCAGGAUAUAUUAAUAGUCACAUGAGGAUCACCCAUGUUCAUUUAUAUGAACGAGUAGAAGGGCGGUGAAAAAA [SameState2 Malc#8]	110	174
AAAGACAUAGUGCAGGAUAUGGUAAUAGUCACAUGAGGAUCACCCAUGUUCUUUUAUAAGAACGAUCAGAAGGGCGGUAAAAAAA [SameState2 Malc#13]	666	359
AAAGACAUAGUUCAGGAUAUGGUAAUAGUCACAUGAGGAUCACCCAUGUUCUUUUAUAAGAACGAUCAGAAGGGAGGUAAAAAAA [SameState2 Malc#14]	282	151
AAAGACGUGGUGUAGGAUAUACUAAUAGUCACAUGAGGAUCACCCAUGUUCAUAUAUAUGAACGAGUAGAAGGACGACGAAAAAA [SameState2 Malc#2]	95.8	70.4
AAAUAAAAGACUAAGGAUAUGUCGCAUGACACAUGAGGAUCACCCAUGUGGUAACACAGAGGGUGGCAGAAGGUAGUCAAAAAAC [Mod 1 of Pariah 6 (Round1) by Hyphema]	446	45.8
AAAUAAAUAAGAGAGGAUAUGUCAGAGAAAACAUGAGGAUCACCCAUGUAAUAAUAAAAAGGGUGACAGAAGGCUCAAAACAAAC [Hyphema modified]	58.5	32.3
AAAUAAAUGACUAAGGAUAUAUCGAAGAAGACAUGAGGAUCACCCAUGUAAUAAUAAAAAGGGUGGUAGAAGGUAGUCAACAAAC [Mod 6 of Pariah 4 by Hyphema in Round 1]	233	156
AAAUAAAUGACUGAGGAUAUAUCGAUGAAUACAUGAGGAUCACCCAUGUGAUAAUAAAAAGGGUGGUAGAAGGUAGUCAACAAAC [Mod 13 of Pariah 4 by Hyphema in Round 1]	71.9	95.9
AAAUAAAUGACUGAGGAUAUGUCGAAGAAAACAUGAGGAUCACCCAUGUGAUAAUAAAAAGGGUGAUAGAAGGUAGUCAACAAAC [Mod 10 of Pariah 4 by Hyphema in Round 1]	262	323
AAAUAACAUGAGGAUCACCCAUGUCAAAUAAAUCGAGGAUAUGGGCCCGAGUUCCGGGAGCCAGAAGGCGAAAAGA [Ceusrete]	51.7	28.9
AAAUAACAUGAGGAUCACCCAUGUCAAAUAAAUCGAGGAUAUGGGCCCGGGUUCCGGAAGCCAGAAGGCGAAAAGA [Diareslera]	55.1	24.9
AAAUAACAUGAGGAUCACCCAUGUUACAACAUUACAGGAUAUGUGGGUGAAAAUAGCAUGACAGAAGGGUACUGUA [SameState1 Malc#34]	393	479
